Earlier results as cited in US20250304696A1, “METHODS AND COMPOSITIONS FOR TREATING BARTH SYNDROME” (PROVENTION BIO, INC., priority 2021, published 2025).

B1: inebilizumab (antibody, chains of the INN, looked up, V domains shown)
VH: EVQLVESGGGLVQPGGSLRLSCAASGFTFSSSWMNWVRQAPGKGLEWVGRIYPGDGDTNYNVKFKGRFTISRDDSKNSLYLQMNSLKTEDTAVYYCARSGFITTVRDFDYWGQGTLVTVSS
VL: EIVLTQSPDFQSVTPKEKVTITCRASESVDTFGISFMNWFQQKPDQSPKLLIHEASNQGSGVPSRFSGSGSGTDFTLTINSLEAEDAATYYCQQSKEVPFTFGGGTKVEIK
notes: cell depleting agent

system: depleted cell types (B cells); conditions: patients receiving depleting agents

Time to recover the depleted cell types, up to a year:
ocrelizumab, rituximab, B1
